Test results from patent US20210032351A1 (XDCEXPLORER SHANGHAI, published 2021).

Assays:
[1] = biological target: T1, wild-type EGFR protein on the surfaces of A431 tumor cells and normal human primary hepatocytes (human, UniProt P00533 25-1210); experiment: FACS, A431 tumor cells
T1 construct: whole, on cells; Same protein on two cell types; also called human epidermal growth factor receptor; her-1
Protocol: (§1) The preparation of U87MG-EGFRvIII required for FACS detection is as described in the preparation of the immunogen B in example 1. Normal human primary hepatocytes are purchased from BioreclamationIVT, and A431 tumor cells are purchased from ATCC. The recovered hepatocytes are directly used for FACS detection, and the recovered U87MG-EGFRvIII and A431 cells are subjected to an expanded culture to 90% confluence in a T-75 cell culture flask; the medium is sucked out, and the cells are washed twice with a HBSS buffer (Hanks Balanced Salt Solution) (purchased from Invitrogen), and then treated with an enzyme-free cell dissociation solution (Versene solution: purchased from Life Technology) and collected. The cells are washed twice with the HBSS buffer and are counted, and then the cells are diluted with the HBSS buffer to 2×10⁶ cells/ml, added with 1% goat serum blocking solution, with the percentage being the mass percentage, and incubated on ice for 30 minutes, and then centrifugally washed twice with the HBSS buffer. The collected cells are resuspended to 2×10⁶ cells/mL with an FACS buffer (HBSS+2% FBS, with the percentage being the volume percentage), added to a 96-well FACS reaction plate at 100 μL/well, then added with 100 μL/well of the purified EGFRvIII antibody (samples to be tested) obtained in example 12, and incubated on ice for 2 hours. The plate is centrifugally washed twice with the FACS buffer, added with 100 μL/well of a 1:1000 diluted fluorescence (Alexa 488) labeled secondary antibody (purchased from Invitrogen), and incubated on ice for 1 hour. The plate is centrifugally washed 3 times with the FACS buffer, added with 100 μL/well of a fixing solution [4% (v/v) paraformaldehyde] to resuspend the cells, and centrifugally washed twice with the FACS buffer after 10 minutes. The cells are resuspended in 100 μL of the FACS buffer, and the results are detected and analyzed by FACS (FACS Calibur, purchased from BD). Data analysis is performed by using the software (CellQuest) to obtain the mean fluorescence intensity (MFI) of the cells. Data is further analyzed by using the software (GraphPad Prism5) to perform data fitting and calculate EC50.

[2] = biological target: T1, wild-type EGFR protein on the surfaces …; experiment: FACS, MFI on A431 cells over MFI on normal primary hepatocytes
Protocol: as §1

[3] = biological target: T1, wild-type EGFR protein on the surfaces …; experiment: FACS, normal human primary hepatocytes
Protocol: as §1

mean fluorescence intensity (MFI) [1] [MFI] | Selective window (MFIA431/Hepatocytes) [2] [ratio] | mean fluorescence intensity (MFI) [3] [MFI] | Binder
7360 | 17 | 433 | Humanized antibody h63A10A7-25 (antibody, human IgG1, V domains shown, Human IgG1 constant region, human kappa constant region) VH: QVQLVQSGAEVKKPGASVKVSCKASGYTFISFTMHWVKQRPGQGLEWIGYINPNSGYTKYNQKFKDKATLTRDTSTSTVYMELSSLRSEDTAVYYCTRGGGRGFAYWGQGTLVTVSS VL: DILMTQSPSSLSASVGDRVTITCHASQDINSNIGWYQQKPGKSFKALIYHGTNLEDGVPSRFSGSGSGADYTLTISSLQPEDFATYYCVQYAQFPFTFGQGTKLEIK
9860 | 19.6 | 502 | Humanized antibody h63A10A7-24 (antibody, human IgG1, V domains shown, Human IgG1 constant region, human kappa constant region) VH: QVQLVQSGAEVKKPGASVKVSCKASGYTFISFTMHWVKQRPGQGLEWIGYINPNSGYTKYNQKFKDKATLTRDTSTSTVYMELSSLRSEDTAVYYCTRGGGRGFAYWGQGTLVTVSS VL: DILMTQSPSSLSASVGDRVTITCHASQDINSNIGWLQQKPGKSFKALIYHGTNLEDGVPSRFSGSGSGTDYTLTISSLQPEDFATYYCVQYAQFPFTFGQGTKLEIK
4000 | 6 | 661 | Humanized antibody h63A10A7-23 (antibody, human IgG1, V domains shown, Human IgG1 constant region, human kappa constant region) VH: QVQLVQSGAEVKKPGASVKVSCKASGYTFISFTMHWVKQRPGQGLEWIGYINPNSGYTKYNQKFKDKATLTRDTSTSTVYMELSSLRSEDTAVYYCTRGGGRGFAYWGQGTLVTVSS VL: DILMTQSPSSLSASVGDRVTITCHASQDINSNIGWLQQKPGKAPKALIYHGTNLEDGVPSRFSGSGSGADYTLTISSLQPEDFATYYCVQYAQFPFTFGQGTKLEIK
6130 | 14.1 | 435 | Humanized antibody h63A10A7-26 (antibody, human IgG1, V domains shown, Human IgG1 constant region, human kappa constant region) VH: QVQLVQSGAEVKKPGASVKVSCKASGYTFISFTMHWVKQRPGQGLEWIGYINPNSGYTKYNQKFKDKATLTRDTSTSTVYMELSSLRSEDTAVYYCTRGGGRGFAYWGQGTLVTVSS VL: DILMTQSPSSLSASVGDRVTITCHASQDINSNIGWYQQKPGKSFKALIYHGTNLEDGVPSRFSGSGSGADFTLTISSLQPEDFATYYCVQYAQFPFTFGQGTKLEIK
1060 | 4.2 | 254 | Humanized antibody h63A10A7-38 (antibody, human IgG1, V domains shown, Human IgG1 constant region, human kappa constant region) VH: QVQLVQSGAEVKKPGASVKVSCKASGYTFISFTMHWVRQAPGQGLEWIGYINPNSGYTKYNQKFKDKATLTRDTSTSTVYMELSSLRSEDTAVYYCTRGGGRGFAYWGQGTLVTVSS VL: DIQMTQSPSSLSASVGDRVTITCHASQDINSNIGWLQQKPGKSFKALIYHGTNLEDGVPSRFSGSGSGADYTLTISSLQPEDFATYYCVQYAQFPFTFGQGTKLEIK
7460 | 15.4 | 486 | Humanized antibody h63A10A7-20 (antibody, human IgG1, V domains shown, Human IgG1 constant region, human kappa constant region) VH: QVQLVQSGAEVKKPGASVKVSCKASGYTFISFTMHWVRQAPGQGLEWIGYINPNSGYTKYNQKFKDKATLTRDTSTSTVYMELSSLRSEDTAVYYCTRGGGRGFAYWGQGTLVTVSS VL: DILMTQSPSSLSASVGDRVTITCHASQDINSNIGWLQQKPGKSFKALIYHGTNLEDGVPSRFSGSGSGADYTLTISSLQPEDFATYYCVQYAQFPFTFGQGTKLEIK

Further lines, the binder ahead of its results:

Binder | mean fluorescence intensity (MFI) [1] [MFI] | Selective window (MFIA431/Hepatocytes) [2] [ratio] | mean fluorescence intensity (MFI) [3] [MFI]
Chimeric antibody c63A10A7 (antibody, human IgG1, V domains shown, also called chimeric antibody 63A10) VH: QVQLQQSGAELARPGASVKMSCKASGYTFISFTMHWVKQRPGQGLEWIGYINPNSGYTKYNQKFKDKATLTAGQSSSTAYMQLSSLTSEDSAVYYCTRGGGRGFAYWGQGTLVTVSA VL: DILMTQSPSSMSVSLGDTVTITCHASQDINSNIGWLQQKPGKSFKALIYHGTNLEDGVPSRFSGSGSGADYSLTISSLESEDFADYYCVQYAQFPFTFGSGTKLEIK | 4730 | 15.8 | 299
Humanized antibody h63A10A7-19 (antibody, human IgG1, V domains shown, Human IgG1 constant region, human kappa constant region) VH: QVQLVQSGAEVKKPGASVKVSCKASGYTFISFTMHWVKQRPGQGLEWMGYINPNSGYTKYNQKFKDKATMTRDTSTSTVYMELSSLRSEDTAVYYCTRGGGRGFAYWGQGTLVTVSS VL: DILMTQSPSSLSASVGDRVTITCHASQDINSNIGWLQQKPGKSFKALIYHGTNLEDGVPSRFSGSGSGADYTLTISSLQPEDFATYYCVQYAQFPFTFGQGTKLEIK | 3830 | 8.7 | 439
Humanized antibody h63A10A7-22 (antibody, human IgG1, V domains shown, Human IgG1 constant region, human kappa constant region) VH: QVQLVQSGAEVKKPGASVKVSCKASGYTFISFTMHWVKQRPGQGLEWIGYINPNSGYTKYNQKFKDKATLTRDTSTSTVYMELSSLRSEDTAVYYCTRGGGRGFAYWGQGTLVTVSS VL: DIQMTQSPSSLSASVGDRVTITCHASQDINSNIGWLQQKPGKSFKALIYHGTNLEDGVPSRFSGSGSGADYTLTISSLQPEDFATYYCVQYAQFPFTFGQGTKLEIK | 9380 | 15.8 | 592
Humanized antibody h63A10A7-39 (antibody, human IgG1, V domains shown, Human IgG1 constant region, human kappa constant region) VH: QVQLVQSGAEVKKPGASVKVSCKASGYTFISFTMHWVKQRPGQGLEWIGYINPNSGYTKYNQKFKDRVTLTRDTSTSTVYMELSSLRSEDTAVYYCTRGGGRGFAYWGQGTLVTVSS VL: DIQMTQSPSSLSASVGDRVTITCHASQDINSNIGWLQQKPGKSFKALIYHGTNLEDGVPSRFSGSGSGADYTLTISSLQPEDFATYYCVQYAQFPFTFGQGTKLEIK | 1960 | 7.5 | 261
Humanized antibody h63A10A7-21 (antibody, human IgG1, V domains shown, Human IgG1 constant region, human kappa constant region) VH: QVQLVQSGAEVKKPGASVKVSCKASGYTFISFTMHWVKQRPGQGLEWIGYINPNSGYTKYNQKFKDRVTLTRDTSTSTVYMELSSLRSEDTAVYYCTRGGGRGFAYWGQGTLVTVSS VL: DILMTQSPSSLSASVGDRVTITCHASQDINSNIGWLQQKPGKSFKALIYHGTNLEDGVPSRFSGSGSGADYTLTISSLQPEDFATYYCVQYAQFPFTFGQGTKLEIK | 7930 | 14 | 568
Humanized antibody h63A10A7-18 (antibody, human IgG1, V domains shown, Human IgG1 constant region, human kappa constant region) VH: QVQLVQSGAEVKKPGASVKVSCKASGYTFISFTMHWVKQRPGQGLEWIGYINPNSGYTKYNQKFKDKATLTADQSTSTAYMELSSLRSEDTAVYYCTRGGGRGFAYWGQGTLVTVSS VL: DILMTQSPSSLSASVGDRVTITCHASQDINSNIGWLQQKPGKSFKALIYHGTNLEDGVPSRFSGSGSGADYTLTISSLQPEDFATYYCVQYAQFPFTFGQGTKLEIK | 9140 | 16.5 | 553
Humanized antibody h63A10A7-17 (antibody, human IgG1, V domains shown, Human IgG1 constant region, human kappa constant region) VH: QVQLVQSGAEVKKPGASVKVSCKASGYTFISFTMHWVKQRPGQGLEWIGYINPNSGYTKYNQKFKDKATLTRDTSTSTVYMELSSLRSEDTAVYYCTRGGGRGFAYWGQGTLVTVSS VL: DILMTQSPSSLSASVGDRVTITCHASQDINSNIGWLQQKPGKSFKALIYHGTNLEDGVPSRFSGSGSGADYTLTISSLQPEDFATYYCVQYAQFPFTFGQGTKLEIK | 10600 | 15.6 | 677
Humanized antibody h63A10A7-37 (antibody, human IgG1, V domains shown, Human IgG1 constant region, human kappa constant region) VH: QVQLVQSGAEVKKPGASVKVSCKASGYTFISFTMHWVKQRPGQGLEWMGYINPNSGYTKYNQKFKDKATMTRDTSTSTVYMELSSLRSEDTAVYYCTRGGGRGFAYWGQGTLVTVSS VL: DIQMTQSPSSLSASVGDRVTITCHASQDINSNIGWLQQKPGKSFKALIYHGTNLEDGVPSRFSGSGSGADYTLTISSLQPEDFATYYCVQYAQFPFTFGQGTKLEIK | 1320 | 5 | 265
